Assay results published in publication PMC4427845, “Redesigning Protein Cavities as a Strategy for Increasing Affinity in Protein-Protein Interaction: Interferon-γ Receptor 1 as a Model” (BioMed Research International, 2015).
Where a chain is given by its changes, count along the chain named.

Assays:
Experiment in all cases: SPR; His-tagged receptor variants immobilised on a Ni2+-activated HTG sensor chip (ProteOn); IFNγSC 0.1-9 nM flowed over, 90 s association, 10 min dissociation, 100 μL/min; PBST (PBS pH 7.4, 0.005% Tween 20); doubly referenced (interspots and His-tagged FrpD channel); 1:1 Langmuir with drift model
Conditions in all cases: both partners purified
[1] = biological target: T1, IFNγR1 N96W + G225Y double mutant (residues 18-245) (human, UniProt P15260 18-245, N96W | G225Y)
T1 construct: interferon-γ receptor 1 (IFNγR1), human, extracellular domain, residues 18-245 of UniProt P15260; not shown: His tag, C-terminal, kept
T1 sequence (looked up): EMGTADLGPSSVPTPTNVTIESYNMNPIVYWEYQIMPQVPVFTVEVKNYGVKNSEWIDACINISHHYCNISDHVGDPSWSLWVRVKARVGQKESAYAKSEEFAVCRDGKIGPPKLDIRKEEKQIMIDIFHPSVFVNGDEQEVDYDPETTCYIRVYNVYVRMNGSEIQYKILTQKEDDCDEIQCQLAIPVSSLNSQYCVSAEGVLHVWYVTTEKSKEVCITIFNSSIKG

[2] = biological target: T2, IFNγR1 G225Y variant (residues 18-245) (human, UniProt P15260 18-245, G225Y)
T2 construct: interferon-γ receptor 1 (IFNγR1), human, extracellular domain, residues 18-245 of UniProt P15260; No primers are printed for this mutation; the methods say one protocol was followed for all proteins of the study; not shown: His tag, C-terminal, kept
T2 sequence (looked up): T1 sequence (looked up) with W79N

[3] = biological target: T3, IFNγR1 N96W + V35L variant (residues 18-245) (human, UniProt P15260 18-245, V35L | N96W)
T3 construct: interferon-γ receptor 1 (IFNγR1), human, extracellular domain, residues 18-245 of UniProt P15260; not shown: His tag, C-terminal, kept
T3 sequence (looked up): T1 sequence (looked up) with V18L, Y208G

ratio of Kd values against WT [1]: 3.1 | ratio of Kd values against WT [2]: 0.4 | fold of affinity against WT [3]: 7 fold
B1: Recombinant interferon gamma in so-called single chain form (IFNγSC) (ligand)
chain: MQDPYVKEAENLKKYFNAGHSDVADNGTLFLGILKNWKEESDRKIMQSQIVSFYFKLFKNFKDDQSIQKSVETIKEDMNVKFFNSNKKKRDDFEKLTNYSVTDLNVQRKAIDELIQVMAEFSTEEQQEGPYVKEAENLKKYFNAGHSDVADNGTLFLGILKNWKEESDRKIMQSQIVSFYFKLFKNFKDDQSIQKSVETIKEDMNVKFFNSNKKKRDDFEKLTNYSVTDLNVQRKAIHELIQVMAELSPAAKTGKRKRSQMLFRG
